Positions of bridges follow the written chain, without caps; N, C: chain ends.
Legend:
[1] = target: T1, human IgG1 (human, UniProt P01857-1 1-330 = IgG part); assay: mini-column chromatography, immobilised ligand
T1 construct: Calbiochem; human plasma IgG1 in anisotropy studies, myeloma-derived (cat. 400120) in batch/column studies; also called hIgG1
Procedure: (§1) Thus, 250 μg of target (hIgG1, hIgG2, hIgG3, hIgG4, goat IgG and bovine IgG) at 0.250 mg/ml in PBST, pH 7.2 or TBST, pH 7.3 was loaded onto a 350 μl column (3×50 mm) run at 0.200 ml/min. flowrate (170 cm/hr). Flowthrough, elution and cleaning fractions were collected and assayed for total protein recovery by size-exclusion HPLC.

[2] = target: T2, human IgG2 (human, UniProt P01859-1 1-326 = IgG part); assay: mini-column chromatography, immobilised ligand
T2 construct: Calbiochem; plasma IgG2 in anisotropy studies, myeloma-derived (cat. 400122) in batch/column studies; also called hIgG2
T2 sequence (P01859 other isoform, or with tags, fused parts or gaps): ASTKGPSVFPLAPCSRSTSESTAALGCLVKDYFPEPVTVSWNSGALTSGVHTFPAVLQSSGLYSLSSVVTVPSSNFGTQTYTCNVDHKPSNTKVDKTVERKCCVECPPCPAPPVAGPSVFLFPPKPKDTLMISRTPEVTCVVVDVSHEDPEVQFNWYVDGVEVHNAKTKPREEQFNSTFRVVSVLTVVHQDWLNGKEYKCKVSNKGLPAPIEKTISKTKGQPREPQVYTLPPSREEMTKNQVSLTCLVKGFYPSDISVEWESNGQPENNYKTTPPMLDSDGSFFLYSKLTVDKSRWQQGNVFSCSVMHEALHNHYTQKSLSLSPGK
Procedure: as §1

[3] = target: T3, human IgG4 (human, UniProt P01861-1 1-327 = IgG part); assay: mini-column chromatography, immobilised ligand
T3 construct: Calbiochem; plasma IgG4 in anisotropy studies, myeloma-derived (cat. 400126) in batch/column studies; also called hIgG4
T3 sequence (P01861 other isoform, or with tags, fused parts or gaps): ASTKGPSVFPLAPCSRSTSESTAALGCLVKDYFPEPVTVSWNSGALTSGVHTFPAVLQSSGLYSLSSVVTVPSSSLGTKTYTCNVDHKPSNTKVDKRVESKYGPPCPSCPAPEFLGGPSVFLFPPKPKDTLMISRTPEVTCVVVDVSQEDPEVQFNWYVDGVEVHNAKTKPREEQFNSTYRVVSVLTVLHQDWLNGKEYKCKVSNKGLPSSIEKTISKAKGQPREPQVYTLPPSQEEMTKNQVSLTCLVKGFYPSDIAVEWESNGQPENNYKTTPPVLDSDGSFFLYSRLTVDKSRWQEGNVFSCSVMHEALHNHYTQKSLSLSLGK
Procedure: as §1

[4] = target: T1, human IgG1; assay: fluorescence anisotropy; pH 5.7, 0.05 M NaCl
Procedure: (§2) All measurements were performed in 384 well microplates with 20 nM fluorescein-labeled peptide and various concentrations of the IgG isoform in a volume of between 10 and 20 μl using a Tecan Polarion fluorescence polarization plate reader. All binding buffers included 0.01% (v/v) Tween 20 to prevent peptide adsorption to the microplate. The binding mixture was equilibrated for 10 minutes in the microplate at 30° C. prior to performing the measurement.

[5] = target: T1, human IgG1; assay: fluorescence anisotropy; pH 5.7, 0.15 M NaCl
Procedure: as §2

[6] = target: T1, human IgG1; assay: fluorescence anisotropy; pH 7.4, 0.01 M Tris-HCl
Procedure: as §2

[7] = target: T2, human IgG2; assay: fluorescence anisotropy; pH 7.4, 0.01 M Tris-HCl
Procedure: as §2

[8] = target: T3, human IgG4; assay: fluorescence anisotropy; pH 7.4, 0.01 M Tris-HCl
Procedure: as §2

[9] = target: T1, human IgG1; assay: fluorescence anisotropy; pH 5.7, 15% ethylene glycol
Procedure: as §2

T1 sequence (P01857 other isoform, or with tags, fused parts or gaps): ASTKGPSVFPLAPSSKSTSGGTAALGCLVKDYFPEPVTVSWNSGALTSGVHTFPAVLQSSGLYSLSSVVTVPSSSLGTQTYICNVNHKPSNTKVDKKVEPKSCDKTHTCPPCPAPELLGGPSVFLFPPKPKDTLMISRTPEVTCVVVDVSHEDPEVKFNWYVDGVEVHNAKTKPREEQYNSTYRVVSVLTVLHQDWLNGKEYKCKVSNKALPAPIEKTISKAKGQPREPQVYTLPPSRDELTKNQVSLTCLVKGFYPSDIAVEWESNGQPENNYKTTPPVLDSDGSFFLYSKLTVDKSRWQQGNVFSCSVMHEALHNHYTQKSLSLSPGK

Ac-GDDHMCVYTTWGELIWCDNHEPGPEGGGK-NH2 (disulfide 6-17 (inferred), Synthetic disulfide-cyclised peptide) [DX249]
binding efficiency [1]: > 90%
binding efficiency [2]: > 90%
binding efficiency [3]: > 90%
Kd [4]: 300 nM
Kd [5]: 840 nM
Kd [6]: 400 nM
Kd [7]: 1800 nM
Kd [8]: 1900 nM
Kd [9]: 80 nM
